Experimental data: the nanobody polyreactivity screen of Harvey et al. (2022)

Assay: yeast display, Sf9 membrane polyspecificity reagent, FACS + sequencing; frameworks hold sequencing errors
Method in brief: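 A nanobody's polyreactivity label depends on the gate it was sorted from. Yeast display cells were stained with 10% biotinylated, detergent-solubilized Sf9 membrane reagent for 1 hour at 4 °C, enriched on streptavidin microbeads and sorted by FACS. The low and high (top ~1%) gates were set on anti-HA fluorescence for expression and streptavidin fluorescence for reagent binding.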

| Sequence | polyreactivity (PSR sort gate) |
| --- | --- |
| QVQLEESGGGLVQAGGSLRLSCAASGSTLTRNAMGWYRQAPGKERELVAAITSGGRTKYADSVKGRFTISRDNAKNTVYLQMNSLKPEDTAVYYCAKGGPPGQRGYDYWGQGTQVTVSS | high polyreactivity |
| QVQLEESGGGLVQAGGSLRLSCAASGSTYGNSAMAGYRQAPGKERELVAAINGGPNTYYADSVKGRFTISRDNAKKTVYLQMNSLKPEDTAVYYCAAEAQAIGFHWGVDGDSWGQGTQVTVSS | low polyreactivity |
| QVQLEESGGGLVQAGGSLRLSCAASGYIFRFYTMGWYRQAPGKERELVAAISSGGSTNYADSVKGRFTISRANAKNTVYLQMNSLKPEDTAVYYCAARFYSRYYWGQGTQVTVSS | low polyreactivity |
| QVQLEESGGGLVQAGGSLRLSCAASGYISRQSAMGWYSQAPGKERELVAAITRGGAGTYYAASVKGRFTISRDNAKHTVYLQMNSLKPEDTAVYYCAKTWVSRDVEYDYWGQGTQVTVSS | low polyreactivity |
| QVQLEESGGGLVQAGGSLRLSCAATGGTFRDNVMGWYRQAPGKERELVAAISRNGGSTYYADTVKGRFTISRDNAKNTVYLQMTSLKPEDTAVYYCAARHLSAGGYYWGQGTQVTVSS | high polyreactivity |
| QVQLEESGGGLVQAGGSLRLSCAATGSIFYSYAMGSNRQAPGKEMELVATISTGGSTDYADSVKGRYTISRDNAKNTVYLQMNSLKPEETAVYYCATSGPYWWLVYWGQGTQVTVSS | low polyreactivity |
| QVQLEESGGGLVQAGGSLRLSCAAYGGIFKQYAMGWYRQAPGKETELVAAITWSGGSTYYADSVKGRFTISRDNAKTTVSLQMNSLKPEDTAVYYCAKDYVVFQYVDFQDDDYWGQGTQVSVSS | low polyreactivity |
| QVQLEESGGGLVQAGGSLRLSCAAYGSIIPFYPMGWYRQAPWTERELVAAISDRGGSTYYADSVKGRFTISRDNAKYTVYLQMNSLKPEDTAVYYGAKGGEVSQGYTDEYDYWGQGTQVTVSS | low polyreactivity |
| QVQLEESGGGLVQAGGSLRLSCGASGFTFRGYAMGWYIQAPGKERELVAAISKRGGSTYYADSVKGRFTISRDNAKNTVYLQMNSLKPEDTAVYYGAAEDTVYWGGVYYWTVYYWGQGTQVNVSS | high polyreactivity |
| QVQLEESGGGLVQAGGSLRLSCPASGRTFSVYAIGSYRPAPGKERELLAGITSGGSTNYADSVKGRFTISRDNAKNTVYLQMISLKPEDTAVYYCAAANVYAGFGFVSIGDYWGQGTQVTVSS | low polyreactivity |
| QVQLEESGGGLVQAGGSLRLSFAASGRIFRYYAMGWYRHAPGKERELVPRMSWSGGSTHYADSVKGRFTISRDNAKNTVYLQMNSLTPEDTAVYYCAADGNGYPYRAGRTYDYWGQGTQVTVSS | low polyreactivity |
| QVQLEESGGGLVQAGGSLRLSSAASGRTLVHYAIGSYRQAPGKEREMVAAISIGGDSTYADSVKGRFTISRDNAKNTVYLQMNSLKPEDTAVYYCAASGWWDFFDPYFKFDYWGQGTQVTVSS | low polyreactivity |
| QVQLEESGGGLVQAGGSLRLTCAASGFIFKSYTMGWYRQATGKEMELVAAITSTGGGTYYADSVKGRFTISRDNAKNTVYLQMNSLKPEDTAVYYCNARTYVTVDYDFWGQGTQVTVSS | high polyreactivity |
| QVQLEESGGGLVQAGGSLRLTCAASGFIFQYYTMGWYRQAPGKERELVASITGTGGSTYYADSVKGRFTISRDNAKNTVYLQMNSLKPEDTAVYYCAAREGWGYEYDYWGQGTQVTVSS | high polyreactivity |
| QVQLEESGGGLVQAGGSLRLTCAASGRIFYRYGMGWYRQATGKERELVAAISRTGGSTYYADSVKGRFTISRDNAKNSVYLQMNSLKPEDTAVYYCNATSNYRYDFWGQGTQVTVSS | low polyreactivity |
| QVQLEESGGGLVQAGGSLRLTCAASGRTFLGNAMGSYRQAPGKEREFVAVISHSGGGTSYADSVKGRFTISRDNAKNTVYLQMNSLKAEETAVYYCAAYSVSSTTWYYYDEYGYWGQGTQVTVSS | low polyreactivity |
| QVQLEESGGGLVQAGGSLRLTCAASGSIFGSYTMGWYRKAPGKERELVAVISYSGGSTYYADSVKGRFSISRDNAKNTVYLQMNSLKPEDTAVYYCNAARKGVGYVHPYDFWGQGTQVTVSS | high polyreactivity |
| QVQLEESGGGLVQAGGSLRLTCAASGSTFRYYALGWYRQAPGKERELVAAISGSGGRTYYADSVKGRFTISRDNAKNTVYLQMNSLKPEDTEVYYCNTRGRRTDYDYWGQGTQVTVSS | high polyreactivity |
| QVQLEESGGGLVQAGGSLRLTCAASGSTFVRYVMGWYRQAPGKERELVAAISRRGGSTYYADSVKGRFTISRDNAKNTVYLEMNSLKPEDTAVYYCARTVGYRTLLESDSWGQGTQVTVSS | high polyreactivity |
| QVQLEESGGGLVQAGGSLRLTCAGSGRIFGIYAMGWYRQAPGKERQLVAAIRDSGSRTYYADSVKGRFTISRDNAKNTVYLQMNRLTPEDTAVYYCAARTYTYPYFGGYQYTYNYWGQGTQVTVSS | low polyreactivity |
| QVQLEESGGGLVQAGGSLSLSCAASGSSLDTYVMGWYRQAPGKEREVVAAISSDTSTNYADSVKGRFTISRDNAKNTVYLQMNSLNPEDTAVYYCAAVGSYYGWYQGFDYWGQGTLVTVSS | low polyreactivity |
| QVQLEESGGGLVQAGGSLSLTCAASGRTFFTYAMGWYRQAPGKERELVAAIRWTGGRTTYADSVKARFSISRDNAKNTVYLQMISLKPEDTAVYYCAARVGRTYASYSTGNYYWGQGTQVTVSS | high polyreactivity |

| Sequence | polyreactivity (PSR sort gate) |
| --- | --- |
| QVQLEESGGGLVQEGGSLRLICAASGRIFGSYVMGWYRQAPGKERELVAAISRRGGSTYYADSVKGRFTISRDNAKNTVYLQMNSLKTEVTAVYYCAAEFSPSSNPYDYWGQGTQVTVSS | high polyreactivity |
| QVQLEESGGGLVQEGGSLRLSCAASGRTFYYYDMGWYRQAPGKERELVAAITWSGGSTYYADSVKGRFTISRDNAKNTVYLQRNCLKREDTAVYYCAADVTYSRYEYWGQGSQVTVSS | low polyreactivity |
| QVQLEESGGGLVQGGGSLRLSCAGSGRIFQLNAMGRYRQAPGIERELVADIRWSSGSTYYADTVKGRFTISRDNAKNSVYFQMYSLKPEDTAVYFCAGRVLYVHRQVYKMDYWGQGTQVTVSS | high polyreactivity |
| QVQLEESGGGLVQPGGSLRLSCAASGRIFADYAMGWYRQAPGKERELVADIRQSGGRTYYADSVKGRFTISRDNAKNTVYLQMNSLKPEDTALYYCATDYGSWGDYSGKYDYWGQGTQVTVSS | low polyreactivity |
| QVQLEESGGGVVQAGGSLRLSCAASGRIFNYYTMGWYRQATGKERELVARINSSGSTNLRRLCEGALHNFTRQCEVYRLFTDEQPETGRYRVYYCNADTKRSSREYEYWGQGTQVTVSS | low polyreactivity |
| QVQLEESGGRLVQAGGSLRLSCAASGRIFNYYAMGWYRQAPGQERELVAAISNGGSTYYADSVKGRFTISRDNAKNTVYLQMNSLKPEDTAVYYGAAYQTYYARTELDYWGQGTLVTVSS | high polyreactivity |
| QVQLEESGGVLVQAGGSHRLRCAASGRTIGWYAMGWYRQAPRKERELVAAIRSSTGSTYYADSVKGRFTISRDNAKNTVFLQMNSLKPEDTAVYDCAKRRADYSPRYGYWGQGTQVTVSS | high polyreactivity |
| QVQLEESGGVLVQAGGSLRLSCAASGRTFGHYAMGWYRPAPGKERELVAAITRDDGTNYADSVKGRFTISGDNAKNTVYLQMNRLKPEDTAVYYCNADVWLRRVYDYWGQGTQVTVSS | low polyreactivity |
| QVQLEESGRGLVQAGGSLRLSCAASGSTCYDYAMGWYRQAPGKERELVAASSRIGARTYYADSVKGRFTISRDNAKNTVYLQMNSQKPEDTAGYYCAATRVYSDYKYWGQGTQVTVSS | high polyreactivity |
| QVQLEESGVGLVQAGGSLRLSCAASGRTFLRNAMGWYRQAPGKEMELVAAISWRGGSTYYADSVKGRFTISRDNAKNTVYLEMNSLKPEDTAVYYCNTFPSQYLWYDYWGQGTQVNVSS | high polyreactivity |
| QVQLEESVGGLDQAVGSLRLSCAASGFTFNRYTMGWYRQAPGKEREFVASITRSGGSTYYADSVKGRFTISRDNAKNTVYLQMNSLTPEDTAVYYCAPVYQYSSRYDHWGQGTQVTVSS | high polyreactivity |
| QVQLEESVGGLVQAGGSLRISCAASGRTFKLYAMGRKRQAPGKERELVATITRRGGSTYYADSVKGRFTISRDNAKNTVYLQMNSLKPEDTAVYYCASDAIGYYGTYDYWGQGTQVTVSS | high polyreactivity |
| QVQLEESVGGLVQAGGSLRLSCAASGITFYDYTMGWYRQAPGKERELVAAISSRGGSTYYADSVKGRFTISRDNAKNTVYLQMNSLKPEDTAVYYCNARYNSWRYLAQYNYWGQGTQVTVSS | high polyreactivity |
| QVQLEESVGGLVQAGGSLRLSCAASGRTFGRYAMGWYRQAPGKERELVAGISRSGDSTHYADSVKGRFTISRDNAKKTVYLQMNSLKPEDTAVYYCNKETPTIGARKYEDWGQGTQVTVSS | low polyreactivity |
| QVQLEESVGGLVQAGGSLRLTCAASGSIFKTNAIGWYRQAPGKERELVAAIRASGGSTYYADSVKGRFTISRDNAKNSVYLQMNSLKPEDTAVYYCAARYWFKYYWGQGTQVTVSS | low polyreactivity |
| QVQLEESWGGLVQAGGSLRLSCAASGRTFDTYAMGWNRQAPGKERELVAAITSGGSTYYADSVKGRFTISRDNAKNTVYLQMNSLKPEDTAVYYCAVSGQLYAYRYGYWGQGTQVTVSS | low polyreactivity |
| QVQLEETGGGLVQAGGSLRLSCAASGFTFYQYAMGWYRKAPRKERELVAAISSSGTSTYYADSVKGRFTISRDNAKNTVYLQMNSLKPEDTAVYYCAARRYKLFYWGQGTQVTVSS | low polyreactivity |
| QVQLGESCGRLVQAGGSLRLSCADSGLTFSVYAMGWYRQSPGKETELVAAISYSGDSTYADSVKGRFTISRDNAKNTVYLQMNSLKPEDTAGYYCHAPLVHQGYRRWYDYWGQGTQVTVSS | low polyreactivity |
| QVQLGESGGGFVQAGGLLRLSCAASGRTFRVYAMGWYRQAPGKERELVAAITRGGSTYYADSVKGRFTFSRDNAQNTVYLQMNSLKPEDTAVYSCAADVLRTQPIGWYSHSPLEYWGQGTQVTVSS | high polyreactivity |
| QVQLGESGGGIVQAGGSLRLSCAASAFIIKYYAMGWYRPAPGKETELVAAIDGSSASTYYADSVKGRFTISRDNAKNTVYLQMNSLKPEDTAVYYCAVARLRRGGVQYGYWGQGTQVTVSS | high polyreactivity |
| QVQLGESGGGIVQAGGSLRLSCAASGRTFAFNAMGWYRQAPGKERELVAAIRWSGGSTYYADSVKGRFTISRDNAKNTVYLQMNSLKPEDTAVYYCATGKWGYFRYNYWGQGTQVTVSS | high polyreactivity |
